Test results published in patent publication US20230220042A1 (SHANGHAI JIAO TONG UNIVERSITY SCHOOL OF MEDICINE, published 2023).
Numbering of substitutions follows the chain as printed. Names may count otherwise. Values belong to the molecule of their own block, whether it stands above or below them.

Assays:
[1] = target: Biotin-FcγRIIB (human) (UniProt P31994); experiment: NGS of 3T3 display library C2 flow-sorted for FcγRIIB binding
[2] = target: FcγRIIA^131R (human) (UniProt P12318); experiment: ELISA, coated antibody, biotin-FcγR;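 on Absorbance value: antibody coated at 2 µg/mL at 100 µL per well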
[3] = target: T1, FcγRI (human, UniProt P12314 16-292, biotin-labeled); experiment: ELISA, coated antibody, biotin-FcγR;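 on Absorbance value: antibody coated at 2 µg/mL at 100 µL per well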
T1 construct: extracellular domain; Bought protein; also called CD64

[4] = target: T2, FcγRIIA^131H (human, UniProt P12318 34-217, biotin-labeled); experiment: ELISA, coated antibody, biotin-FcγR;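 on Absorbance value: antibody coated at 2 µg/mL at 100 µL per well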
T2 construct: extracellular domain; Bought protein; also called RIIAH
T2 sequence (looked up): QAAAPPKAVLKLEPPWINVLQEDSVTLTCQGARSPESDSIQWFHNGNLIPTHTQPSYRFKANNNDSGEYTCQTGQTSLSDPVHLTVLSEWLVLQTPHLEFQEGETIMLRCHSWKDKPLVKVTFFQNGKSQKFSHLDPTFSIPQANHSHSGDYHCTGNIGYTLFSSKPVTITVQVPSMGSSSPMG

[5] = target: T3, FcγRIIB (human, UniProt P31994 43-217, biotin-labeled); experiment: ELISA, coated antibody, biotin-FcγR;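 on Absorbance value: antibody coated at 2 µg/mL at 100 µL per well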
T3 construct: extracellular domain; Bought protein; also called CD32b
T3 sequence (looked up): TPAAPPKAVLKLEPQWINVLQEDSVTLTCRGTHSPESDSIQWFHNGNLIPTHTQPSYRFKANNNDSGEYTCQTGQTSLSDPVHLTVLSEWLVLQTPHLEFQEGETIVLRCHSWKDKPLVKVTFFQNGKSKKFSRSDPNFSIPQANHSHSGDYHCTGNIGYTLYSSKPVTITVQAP

[6] = target: T4, FcγRIIIA^158F (human, UniProt P08637 17-208, biotin-labeled); experiment: ELISA, coated antibody, biotin-FcγR;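 on Absorbance value: antibody coated at 2 µg/mL at 100 µL per well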
T4 construct: extracellular domain; Bought protein; also called RIIIAF

[7] = target: T5, FcγRIIIA^158V (human, UniProt P08637 17-208, biotin-labeled); experiment: ELISA, coated antibody, biotin-FcγR;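 on Absorbance value: antibody coated at 2 µg/mL at 100 µL per well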
T5 construct: extracellular domain; Bought protein; also called RIIIAV; CD16a 158V

[8] = target: T3, FcγRIIB; experiment: ELISA; relative affinity to FcγRIIB over that to FcγRIIA131R
[9] = target: T6, Biotin-FcγRIIB (human, UniProt P31994 43-217, limits assumed, biotin-labelled); experiment: FACS sorting of displayed Fc library on biotin-FcγRIIB, NGS
T6 construct: Bought, biotin-labelled; used at 1 µg/ml for staining and sorting; also called human FcγRIIB; CD32b
T6 sequence (looked up): T3 sequence (looked up)

[10] = target: T6, Biotin-FcγRIIB; experiment: FACS sorting of displayed Fc library on biotin-FcγRIIB, NGS; reference G327A
[11] = target: T6, Biotin-FcγRIIB; experiment: FACS sorting of displayed Fc library on biotin-FcγRIIB, NGS; reference S267E
[12] = target: T6, Biotin-FcγRIIB; experiment: FACS sorting of displayed Fc library on biotin-FcγRIIB, NGS; reference P271C

T1 sequence (P12314 16-292): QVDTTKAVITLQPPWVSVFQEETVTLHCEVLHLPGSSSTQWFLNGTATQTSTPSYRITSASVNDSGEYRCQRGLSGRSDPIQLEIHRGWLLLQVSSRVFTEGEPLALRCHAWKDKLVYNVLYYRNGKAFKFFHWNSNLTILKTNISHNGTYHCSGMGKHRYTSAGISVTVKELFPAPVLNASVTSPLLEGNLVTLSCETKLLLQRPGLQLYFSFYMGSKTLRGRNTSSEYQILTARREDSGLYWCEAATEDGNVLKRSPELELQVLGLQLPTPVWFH
T4 sequence (P08637 17-208): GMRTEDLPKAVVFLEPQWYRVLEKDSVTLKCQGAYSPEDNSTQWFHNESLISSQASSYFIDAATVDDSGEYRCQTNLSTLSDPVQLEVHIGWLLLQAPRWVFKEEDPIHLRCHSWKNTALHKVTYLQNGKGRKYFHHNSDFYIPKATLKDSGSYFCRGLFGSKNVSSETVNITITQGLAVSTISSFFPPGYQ
T5 sequence (P08637 17-208 F176V): as the sequence (P08637 17-208) above, with F160V counted along it

Molecule: IgG2 N297A (antibody)
- Absorbance value [2]: 0.04 A650

B1: wild-type IgG2 anti-human OX40 antibody (antibody)
heavy: QVQLQESGPGLVKPSGTLSLTCAVSGGSISSSIWWSWVRQPPGKGLEWIGEIHHSGNTNCNPSLKSRVTISIDKSKNQFSLKLTSVTAADTAVYYCARAGTGTTLDYWGQGTLVTVSSASTKGPSVFPLAPCSRSTSESTAALGCLVKDYFPEPVTVSWNSGALTSGVHTFPAVLQSSGLYSLSSVVTVPSSNFGTQTYTCNVDHKPSNTKVDKTVERKCCVECPPCPAPPVAGPSVFLFPPKPKDTLMISRTPEVTCVVVDVSHEDPEVQFNWYVDGVEVHNAKTKPREEQFNSTFRVVSVLTVVHQDWLNGKEYKCKVSNKGLPAPIEKTISKTKGQPREPQVYTLPPSREEMTKNQVSLTCLVKGFYPSDIAVEWESNGQPENNYKTTPPMLDSDGSFFLYSKLTVDKSRWQQGNVFSCSVMHEALHNHYTQKSLSLSPGK
light: EIVLTQSPGTLSLSPGERATLSCRASQSVSGDYLAWYQQKLGQAPRLLIYGASIRATGIPDRFSGSGSGTDFTLTISKLEPEDFAVYYCQQYGSSPLTFGGGTKVEIKRTVAAPSVFIFPPSDEQLKSGTASVVCLLNNFYPREAKVQWKVDNALQSGNSQESVTEQDSKDSTYSLSSTLTLSKADYEKHKVYACEVTHQGLSSPVTKSFNRGEC
notes: also called WTIgG2
- Absorbance value [2]: 0.08 A650
- Relative binding affinity RIIAR/G1 [2]: 0.29
- Absorbance value [3]: 0.08 A650
- Relative binding affinity RI/G1 [3]: 0.03 ratio
- Absorbance value [4]: 0.49 A650
- Relative binding affinity RIIAH/G1 [4]: 0.85 ratio
- Absorbance value [5]: 0.08 A650
- Increased factor of RIIB binding compared with wild-type IgG2 [5]: 1 fold
- Relative binding affinity RIIB/G1 [5]: 0.1 ratio
- Absorbance value [6]: 0.06 A650
- Relative binding affinity RIIIAF/G1 [6]: 0.3 ratio
- Absorbance value [7]: 0.05 A650
- Relative binding affinity RIIIAV/G1 [7]: 0.06 ratio
- RIIB/RIIAR [8]: 0.34 ratio

B2: anti-human OX40 IgG2 antibody Mut_26 (V234Q/A235G/P238L/S239V/S267E/H268S/E269D) (antibody)
heavy: B1 heavy with V232Q, A233G, P235L, S236V, S264E, H265S, E266D
light: B1 light
notes: Substitutions in Eu numbering; entries include an unstated signal peptide
- Absorbance value [2]: 0.08 A650
- Relative binding affinity RIIAR/G1 [2]: 0.32
- Absorbance value [3]: 0.19 A650
- Relative binding affinity RI/G1 [3]: 0.07 ratio
- Absorbance value [4]: 0.06 A650
- Relative binding affinity RIIAH/G1 [4]: 0.11 ratio
- Absorbance value [5]: 0.55 A650
- Increased factor of RIIB binding compared with wild-type IgG2 [5]: 7.28 fold
- Relative binding affinity RIIB/G1 [5]: 0.72 ratio
- Absorbance value [6]: 0.08 A650
- Relative binding affinity RIIIAF/G1 [6]: 0.41 ratio
- Absorbance value [7]: 0.09 A650
- Relative binding affinity RIIIAV/G1 [7]: 0.09 ratio
- RIIB/RIIAR [8]: 2.24 ratio

B3: human IgG2 anti-mouse CD40 surface displayed antibody, Fc mutant G327A/A330R (antibody, name in EU numbering)
light chain (with the P2A rest): DTVLTQSPALAVSPGERVTISCRASDSVSTLMHWYQQKPGQQPKLLIYLASHLESGVPARFSGSGSGTDFTLTIDPVEADDTATYYCQQSWNDPWTFGGGTKLELKRTVAAPSVFIFPPSDEQLKSGTASVVCLLNNFYPREAKVQWKVDNALQSGNSQESVTEQDSKDSTYSLSSTLTLSKADYEKHKVYACEVTHQGLSSPVTKSFNRGECGSGATNFSLLKQAGDVEENPG
heavy chain: EVQLVESDGGLVQPGRSLKLPCAASGFTFSDYYMAWVRQAPTKGLEWVASISYDGSSTYYRDSVKGRFTISRDNAKSTLYLQMDSLRSEDTATYYCGRHSSYFDYWGQGVMVTVSSASTKGPSVFPLAPCSRSTSESTAALGCLVKDYFPEPVTVSWNSGALTSGVHTFPAVLQSSGLYSLSSVVTVPSSNFGTQTYTCNVDHKPSNTKVDKTVERKCCVECPPCPAPPVAGPSVFLFPPKPKDTLMISRTPEVTCVVVDVSHEDPEVQFNWYVDGVEVHNAKTKPREEQFNSTFRVVSVLTVVHQDWLNGKEYKCKVSNKALPRPIEKTISKTKGQPREPQVYTLPPSREEMTKNQVSLTCLVKGFYPSDIAVEWESNGQPENNYKTTPPMLDSDGSFFLYSKLTVDKSRWQQGNVFSCSVMHEALHNHYTQKSLSLSPGKLEPPPSTVSNMATVAVLVVLGAAIVTGAVVAFVMKMRRRNTGGKGGDYALAPGSQTSDLSLPDCKVMVHDPHSLA
notes: as m1; positions are Eu numbers; copies: 2 + 2
- Enrichment factor (after/before sorting) [9]: 98.3
- Increased factor a (enrichment factor/wild-type enrichment factor) [9]: 65.8
- Increased factor 2 c Site 1 (combined/point mutation) [10]: 19.5

B6: human IgG2 anti-mouse CD40 surface displayed antibody, Fc mutant G327A/A330V (antibody, name in EU numbering)
light chain (with the P2A rest): B3 light chain (with the P2A rest)
heavy chain: B3 heavy chain with R325V
notes: as for B3
- Enrichment factor (after/before sorting) [9]: 6.98
- Increased factor a (enrichment factor/wild-type enrichment factor) [9]: 4.67
- Increased factor 2 c Site 1 (combined/point mutation) [10]: 1.4

B8: human IgG2 anti-mouse CD40 surface displayed antibody, Fc mutant G327A/I332A (antibody, name in EU numbering)
light chain (with the P2A rest): B3 light chain (with the P2A rest)
heavy chain: B3 heavy chain with R325A, I327A
notes: as for B3
- Enrichment factor (after/before sorting) [9]: 29.2
- Increased factor a (enrichment factor/wild-type enrichment factor) [9]: 19.5
- Increased factor 2 c Site 1 (combined/point mutation) [10]: 5.8

B10: human IgG2 anti-mouse CD40 surface displayed antibody, Fc mutant G327A/I332C (antibody, name in EU numbering)
light chain (with the P2A rest): B3 light chain (with the P2A rest)
heavy chain: B3 heavy chain with R325A, I327C
notes: as for B3
- Enrichment factor (after/before sorting) [9]: 11.4
- Increased factor a (enrichment factor/wild-type enrichment factor) [9]: 7.64
- Increased factor 2 c Site 1 (combined/point mutation) [10]: 2.3

More lines, now with the values ahead:

- enrichment factor, percentage after 3rd sorting/percentage after 2nd sorting [1]: 15.4
- percentage after 2nd sorting [1]: 0%
- percentage after 3rd sorting [1]: 0.04%
Molecule: human IgG2 anti-mouse CD40 surface displayed antibody, V234Q/V266L/S267D/H268D/E269D/P271Q

- Enrichment factor (after/before sorting) [9]: 19.2
- Increased factor a (enrichment factor/wild-type enrichment factor) [9]: 33.4
- Increased factor 2 c Site 1 (combined/point mutation) [11]: 1.2
B4: human IgG2 anti-mouse CD40 surface displayed antibody, Fc mutant S267E/P271Y (antibody, name in EU numbering)
light chain (with the P2A rest): B3 light chain (with the P2A rest)
heavy chain: B3 heavy chain with S262E, P266Y, A322G, R325A
notes: as for B3

- Enrichment factor (after/before sorting) [9]: 37.4
- Increased factor a (enrichment factor/wild-type enrichment factor) [9]: 65.1
- Increased factor 2 c Site 2 (combined/point mutation) [12]: 2.2
B5: human IgG2 anti-mouse CD40 surface displayed antibody, Fc mutant S267A/P271C (antibody, name in EU numbering)
light chain (with the P2A rest): B3 light chain (with the P2A rest)
heavy chain: B3 heavy chain with S262A, P266C, A322G, R325A
notes: as for B3

- Enrichment factor (after/before sorting) [9]: 24
- Increased factor a (enrichment factor/wild-type enrichment factor) [9]: 41.8
- Increased factor 2 c Site 1 (combined/point mutation) [11]: 1.5
B7: human IgG2 anti-mouse CD40 surface displayed antibody, Fc mutant S267E/P271W (antibody, name in EU numbering)
light chain (with the P2A rest): B3 light chain (with the P2A rest)
heavy chain: B3 heavy chain with S262E, P266W, A322G, R325A
notes: as for B3

- Enrichment factor (after/before sorting) [9]: 126
- Increased factor a (enrichment factor/wild-type enrichment factor) [9]: 84.1
- Increased factor 2 c Site 1 (combined/point mutation) [10]: 24.9
B9: human IgG2 anti-mouse CD40 surface displayed antibody, Fc mutant G327A/I332E (antibody, name in EU numbering)
light chain (with the P2A rest): B3 light chain (with the P2A rest)
heavy chain: B3 heavy chain with R325A, I327E
notes: as for B3

- Enrichment factor (after/before sorting) [9]: 42.7
- Increased factor a (enrichment factor/wild-type enrichment factor) [9]: 74.3
- Increased factor 2 c Site 1 (combined/point mutation) [11]: 2.6
B11: human IgG2 anti-mouse CD40 surface displayed antibody, Fc mutant S267E/D270H (antibody, name in EU numbering)
light chain (with the P2A rest): B3 light chain (with the P2A rest)
heavy chain: B3 heavy chain with S262E, D265H, A322G, R325A
notes: as for B3

- Enrichment factor (after/before sorting) [9]: 22.1
- Increased factor a (enrichment factor/wild-type enrichment factor) [9]: 38.4
- Increased factor 2 c Site 1 (combined/point mutation) [11]: 1.4
B12: human IgG2 anti-mouse CD40 surface displayed antibody, Fc mutant S267E/P271V (antibody, name in EU numbering)
light chain (with the P2A rest): B3 light chain (with the P2A rest)
heavy chain: B3 heavy chain with S262E, P266V, A322G, R325A
notes: as for B3
